Test results reported in patent publication US20240417462A1 (SHANGHAI CELGEN BIO PHARMACEUTICAL, published 2024).
Changes are numbered by the printed parent chain. Several values for one entry are separate records, joined by “and”; a condition that tells them apart may be missing. Equal entries are not always repeated.

T1: recombinant human TIGIT (Human TIGIT His, Sino Biological, 10917-H08H) (human, UniProt Q495A1 22-138)
T1 construct: range 1-138; bought; also called hTIGIT
T1 sequence (looked up): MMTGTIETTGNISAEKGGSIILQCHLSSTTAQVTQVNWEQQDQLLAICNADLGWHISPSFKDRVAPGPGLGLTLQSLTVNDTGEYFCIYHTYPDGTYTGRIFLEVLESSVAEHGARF

T2: full-length human TIGIT expressed on CHO-K cell membrane (CHO-K-TIGIT) (human, UniProt Q495A1 22-244)
T2 construct: whole, on cells; also called CHO-TIGIT; membrane TIGIT
T2 sequence (looked up): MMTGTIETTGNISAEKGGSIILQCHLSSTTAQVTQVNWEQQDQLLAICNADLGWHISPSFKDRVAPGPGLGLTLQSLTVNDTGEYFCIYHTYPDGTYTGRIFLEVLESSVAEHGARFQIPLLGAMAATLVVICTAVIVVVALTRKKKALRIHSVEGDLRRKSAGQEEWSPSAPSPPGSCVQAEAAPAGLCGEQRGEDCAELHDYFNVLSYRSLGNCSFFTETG

B1: anti-human TIGIT human mouse chimeric monoclonal antibody 7103-01 (hFc) (antibody, V domains shown)
VH: QVQLQQPGAELVKPGASVKLSCKASGYTFISYNIYWVKQRPGQGLEWIGGVNPSNGNTNFNENFKSKATLTVDKSSSTAYMQLSSLTSDDSAVYFCTRGNYYGYEFAYWGQGTLVTVSA
VL: DIVMTQSHKFMSTSVGDRVSITCKASQHVSTAVAWYQQKPGQSPKLLIYSPSYRYTGVPDRFTGSGSGTDFTFTISSVQAEDLAVYYCQQHYSTPWTFGGGTKLEIK
notes: also called 7301-01 (hFc)
B2: humanized anti-human TIGIT monoclonal antibody P03490 (antibody, V domains shown)
VH: QVQLVQSGAEVKKPGASVKLSCKASGYTFISYNIYWVRQAPGQGLEWIGGVNPSNGNTNFNENFKSRATLTVDKSSSTAYMELSRLRSDDTAVYFCTRGNYYGYEFAYWGQGTTVTVSS
VL: DIQMTQSPSSLSASVGDRVTITCKASQHVSTAVAWYQQKPGKAPKLLIYSPSYRYTGVPSRFSGSGSGTDFTFTISSLQPEDIATYYCQQHYSTPWTFGGGTKLEIK
B3: humanized anti-human TIGIT monoclonal antibody P03491 (antibody, V domains shown)
VH: B2 VH with L20V, A68V, S76I, F95Y
VL: B2 VL
B4: humanized anti-human TIGIT monoclonal antibody P03492 (antibody, V domains shown)
VH: B2 VH with L20V, S66G, A68V, K74T, S76I, F95Y
VL: B2 VL
B5: humanized anti-human TIGIT monoclonal antibody P03493 (antibody, V domains shown)
VH: B2 VH with L20V, I48M, K65Q, S66G, A68V, L70M, K74T, S76I, F95Y
VL: B2 VL
B6: humanized anti-human TIGIT monoclonal antibody P03479 (antibody, V domains shown)
VH: EVQVVESGGGLVKPGGSLRLSCAASGFTFSTYAMSWVRQAPGKGLEWVAEISSGGSHTFYADTVKGRFTISRDNAKNTLYLQMNSLRAEDTAVYYCARKTLDYYALDYWGQGTTVTVSS
VL: DVQITQSPSYLSASVGDRVTINCRASKSISKYLAWYQQKPGKAPKLLIYSGSRLQSGIPSRFSGSGYGTDFTLTISSLQPEDFATYYCQQHNEYPWTFGGGTKLEIK
B7: humanized anti-human TIGIT monoclonal antibody P04662 (antibody, V domains shown)
VH: B6 VH with G42E, K43Q, G44R, A61S, K65T
VL: B6 VL with Y10S, L11V, I58V, Y67S
B8: humanized anti-human TIGIT monoclonal antibody P04667 (antibody, V domains shown)
VH: B6 VH with G42E, K43Q, G44R
VL: B6 VL with V2I, I4M, Y10S, L11V, D17E, R18T, V19I, N22T, I58V, Y67S
B9: humanized anti-human TIGIT monoclonal antibody P04663 (antibody, V domains shown)
VH: B6 VH with G42E, K43Q, G44R
VL: B6 VL with Y10S, L11V, I58V, Y67S
B10: humanized anti-human TIGIT monoclonal antibody P04666 (antibody, V domains shown)
VH: B6 VH with G42E, K43Q, G44R
VL: B6 VL with Y10S, L11V, D17E, R18T, V19I, I58V, Y67S
B11: anti-human TIGIT human mouse chimeric monoclonal antibody 7103-04 (hFc) (antibody, V domains shown)
VH: VQLQESGAELVKPGASVKLSCRASGYTFTDYFVYWVKQRPGQGLEWIGGINPSNGGATFNEKFKNKATLTVDTSSSTAYMQLSSLTSEDSAIYYCTRGNFYGYEFAYWGQGTLVTVSA
VL: B1 VL with M11I, A34V, S93I
B12: anti-human TIGIT human mouse chimeric monoclonal antibody 7103-03 (hFc) (antibody, V domains shown)
VH: EVQLQQSGPELVKPGASVKISCKTSGYTFTEYTMHWVKQSHGKSLEWIGGINPNNGGTSYNQKFKGKATLTVDKSSSTAYMELRSLTSEDSAVYYCARGAYYRYDFDYWGQGTTLTVSS
VL: B1 VL with H28D, S30R, A34V, P51A
B13: anti-human TIGIT human mouse chimeric monoclonal antibody 7103-06 (hFc) (antibody, V domains shown)
VH: EEQLVESGGGLVKPGGTLKLSCAASGFTFSTYAMSWVRQSPEKRLEWVAEISSGGSYTYYSDTVTGRFTISRDNAKNTLYLEMSSLRSEDTAMYYCARKTLDYYALDYWGHGTSVTVSS
VL: DVQITQSPSYLAASPGETITINCRANKTISKYLAWYQEKPGKTNKLLIYSGSRLQSGIPSKFSGSGYGTDFTLTISSLEPEDFAMYYCQQHNEYPWTFGGGTKLEIK
B14: humanized anti-human TIGIT monoclonal antibody P04665 (antibody, V domains shown)
VH: B6 VH with G42E, K43Q, G44R, A61S, K65T
VL: B6 VL with V2I, I4M, Y10S, L11V, D17E, R18T, V19I, N22T, I58V, Y67S

Target: T1, recombinant human TIGIT (Human TIGIT …)
Experiment: BLI, antibody captured on anti-human Fc probe, TIGIT-His in solution

| Kd | koff | kon | Binder |
| --- | --- | --- | --- |
| 1.73 nM | 0.000951 s⁻¹ | 549000 M⁻¹ s⁻¹ | B1 |
| 1.27 nM | 0.000664 s⁻¹ | 522000 M⁻¹ s⁻¹ | B2 |
| 1.88 nM | 0.00095 s⁻¹ | 506000 M⁻¹ s⁻¹ | B3 |
| 1.49 nM | 0.000781 s⁻¹ | 525000 M⁻¹ s⁻¹ | B4 |
| 1.12 nM | 0.000513 s⁻¹ | 458000 M⁻¹ s⁻¹ | B5 |

Target: T1, recombinant human TIGIT (Human TIGIT …)
Experiment: competition ELISA on recombinant human TIGIT, CD155 as competitor

| IC50 | Binder |
| --- | --- |
| 0.714 nM | B6 |
| 0.63 nM | B7 |
| 0.631 nM | B8 |
| 0.594 nM | B9 |
| 0.127 nM | B10 |

Target: T1, recombinant human TIGIT (Human TIGIT …)
Experiment: ELISA, recombinant human TIGIT (His) coated, anti-human-Fc-AP, OD405/490
Description: (§1) Antigen hTIGIT (Human TIGIT (His), Sino Biological, 10917-H08H) was diluted into 1 μg/mL with a NaHCO₃ solution of pH 9.6, 50 μl per well was added to a 96-well ELISA plate, and placed overnight in refrigerator at 4° C.
(§2) In order to determine whether the humanized TIGIT monoclonal antibody of the present disclosure could bind to the recombinant human TIGIT protein, in vitro testing was performed. Murine antibodies and Tiragolumab (Tira) were used as positive controls. The experimental method was the same as in Example 3.1.

| EC50 | Binder |
| --- | --- |
| 0.0749 µg/mL | B2 |
| 0.0702 µg/mL | B3 |
| 0.0692 µg/mL | B4 |
| 0.0662 µg/mL | B5 |

Target: T1, recombinant human TIGIT (Human TIGIT …)
Experiment: competition ELISA, human TIGIT (His) coated, antibody titrated against fixed CD155, bound CD155 detected, OD450/655

| IC50 | Binder |
| --- | --- |
| 0.109 µg/mL and 0.728 nM | B6 |
| 0.094 µg/mL | B7 |
| 0.094 µg/mL | B8 |
| 0.089 µg/mL | B9 |
| 0.019 µg/mL | B10 |

Target: T1, recombinant human TIGIT (Human TIGIT …)
Experiment: BLI, antibody captured on anti-human Fc probe, TIGIT-His in solution
Remark: another data set of the same source
Description: The dissociation constant (Kd) of the human mouse chimeric TIGIT monoclonal antibody was detected by using a GATORS (ProbeLife) detection instrument and an HFC (LOT #2007065 Tray 2), Human antibody Capture probe. The human mouse chimeric TIGIT monoclonal antibody was diluted to 30 nM in a binding buffer (Q buffer [PBS (10 mM PH7.4)+0.02% Tween 20+0.2% BSA]). The recombinant human TIGIT protein was diluted in Q buffer in a 2-fold gradient to different concentrations varying in the range of 40 nM to 10 nM. A kinetic correlation determination was initiated by placing an antibody capture sensor in the continuously diluted antigen solution described above. Octet Data Acquisition software was opened and New Kinetics Experiment-Basic Kinetics mode was selected.

| Kd | koff | kon | Binder |
| --- | --- | --- | --- |
| 0.574 nM | 0.000405 s⁻¹ | 706000 M⁻¹ s⁻¹ | B1 |
| 0.661 nM | 0.000558 s⁻¹ | 845000 M⁻¹ s⁻¹ | B11 |
| 1.14 nM | 0.00091 s⁻¹ | 801000 M⁻¹ s⁻¹ | B12 |
| 1.29 nM | 0.00139 s⁻¹ | 1.07e+06 M⁻¹ s⁻¹ | B13 |

Target: T1, recombinant human TIGIT (Human TIGIT …)
Experiment: ELISA, recombinant human TIGIT (His) coated, anti-human-Fc-AP, OD405/490
Remark: another data set of the same source
Description: as §1, §2

| EC50 | Binder |
| --- | --- |
| 0.0063 µg/mL and 0.0419 nM | B7 |
| 0.0125 µg/mL and 0.0836 nM | B8 |
| 0.0049 µg/mL and 0.033 nM | B9 |
| 0.0136 µg/mL and 0.0913 nM | B14 |
| 0.0137 µg/mL and 0.0915 nM | B10 |

Target: T1, recombinant human TIGIT (Human TIGIT …)
Experiment: ELISA, coated human TIGIT-His

| EC50 | Binder |
| --- | --- |
| 0.499 nM | B1 |
| 0.554 nM | B11 |
| 0.38 nM | B12 |
| 0.501 nM | B2 |
| 0.471 nM | B3 |
| 0.463 nM | B4 |
| 0.444 nM | B5 |
| 0.0858 nM | B6 |
| 0.554 nM | B13 |

Target: T1, recombinant human TIGIT (Human TIGIT …)
Experiment: BLI, antibody captured on anti-human Fc probe, TIGIT-His in solution
Remark: another data set of the same source

| Kd | koff | kon | Binder |
| --- | --- | --- | --- |
| 8.43 nM | 0.00495 s⁻¹ | 587000 M⁻¹ s⁻¹ | B6 |
| 2.4 nM | 0.0031 s⁻¹ | 1.29e+06 M⁻¹ s⁻¹ | B7 |
| 4.2 nM | 0.00565 s⁻¹ | 1.35e+06 M⁻¹ s⁻¹ | B8 |
| 2 nM | 0.00307 s⁻¹ | 1.53e+06 M⁻¹ s⁻¹ | B9 |
| 5.58 nM | 0.00583 s⁻¹ | 1.04e+06 M⁻¹ s⁻¹ | B14 |
| 2.19 nM | 0.00347 s⁻¹ | 1.59e+06 M⁻¹ s⁻¹ | B10 |

Target: T2, full-length human TIGIT expressed on …
Experiment: flow cytometry, CHO-TIGIT cells

| EC50 | Binder |
| --- | --- |
| 1.08 nM | B1 |
| 0.867 nM | B11 |
| 0.596 nM | B12 |
| 0.437 nM | B4 |
| 0.557 nM | B5 |
| 0.963 nM | B6 |
| 0.873 nM | B13 |

Target: T1, recombinant human TIGIT (Human TIGIT …)
Experiment: competition ELISA, coated TIGIT-His, CD155-mFC as competitor
Description: Antigen TIGIT (Human TIGIT (His), Sino Biological, 10917-H08H) was diluted with pH 9.6 of NaHCO₃ solution into 1 μg/mL, 50 μL per well was added to a 96-well ELISA plate, and placed overnight at 4° C. in a refrigerator. The next day, after washing with PBS twice, plate was blocked with 3% BSA (100 μL per well) by incubating at 37° C. for 1.5 h, and washed 4 times with PBST.

| IC50 | Binder |
| --- | --- |
| 4.03 nM | B1 |
| 3.3 nM | B11 |
| 1.46 nM | B12 |
| 2.03 nM | B13 |
